From patent publication US6861578B1, “Method for plant protection against insects or nematodes by transformation with a nucleic acid encoding equistatin” (Plant Research International B.V., priority 1997, dated 2005)
Where a SMILES comes first, the peptide text is derived from it. [ ]: non-standard residue; d: D form. The star is where a group is joined. Sta = CC(C)C[C@H](N)[C@@H](O)CC(=O)O; Isovaleryl = CC(C)CC(=O)*

How the values were obtained:
[1] = target: potato protease inhibitor-insensitive cysteine proteases of Colorado potato beetle (Leptinotarsa decemlineata) larval gut extracts; experiment: cell-based or functional assay
[2] = target: proteases in extracts of adult leafminer flies (Liriomyza trifolii); experiment: cell-based or functional assay
[3] = system: western corn rootworm cysteine and aspartic protease activity; experiment: Protease activity of western corn rootworm larval gut extract, FITC-hemoglobin; assay type: biochemical, Diabrotica virgifera; details: recombinant equistatin
Protocol: (§1) Adult western flower thrips (Frankliniella occidentalis) and leafmirer flies (Liriomyza trifolii) adult were harvested from a culture maintained on chrysanthemum plants and complete thrips and flies were homogenized in extraction on buffer (200 mM β-alanine-HCl, pH 3.5) in a volume of 5 times the weight of the insects. The buffer pH was at the previously determined pH optimum of protease activity towards hemoglobin. Final instar Colorado potato beetle larvae maintained on potato plants as described in example 5 were checked for gut aspartic protease activity by preparing a total gut extract in pH 3 buffer which is optimal for Colorado potato beetle aspartic proteases (200 mM glycine, pH 3). Guts were homogenized in 100 μl buffer per gut. Third instar western corn rootworm larvae maintained on corn roots were used to remove the guts. Ten guts were homogenized in 100 μl water and spinned twice to remove insoluble material. Two types of buffers were used in the enzymatic assay. One with a pH presumably favoring cysteine proteases (50 mM MES, pH 6.5; 0.6 mg/ml L-cysteine) and one for detecting aspartic proteases (200 mM glycine, pH 3). Supernatants were stored at −20° C.
(§2) 2 μl gut extract was combined with 2 μl inhibitor (2 mM pepstatin in methanol, 4 mM E64 in water, 2 mg/ml recombinant equistatin in water. The concentration of the other proteinaceous inhibitors was not known exactly). Appropriate buffers were added to a final volume of 100 μl. After 15′ preincubation 20 μl substrate (5 mg/ml FITC-hemoglobin) was added and incubated for 30-45 min at 37 C.
(§3) Reaction was stopped by the addition of 100 μl 10% TCA. Tubes were centrifuged and 100 μl supernatant mixed with 100 μl 10 N NaOH was measured on a fluorimeter for the extent of hemoglobin hydrolysis. Measurements were done in duplicate on one (thrips, leafminer and western corn rootworm), or three (Colorado potato beetle) different gut extracts and varied by a maximum of +/−5%.

[4] = system: Colorado potato beetle proteases; experiment: Protease activity of Colorado potato beetle larval gut extract at pH 3, FITC-hemoglobin; assay type: biochemical, Leptinotarsa decemlineata; set-up: inhibition of total protease activity / increase of inhibition by addition of equistatin to E64 / increase of inhibition by addition of equistatin to pepstatin: concentration or dose not given beside the values
Protocol: as §1, §2, §3

[5] = system: thrips protease activity; experiment: Protease activity of adult western flower thrips extract, FITC-hemoglobin; assay type: biochemical, Frankliniella occidentalis; set-up: inhibition of protease activity: concentration or dose not given beside the values
Protocol: as §1, §2, §3

[6] = system: leafminer proteases; experiment: Protease activity of adult leafminer fly extract, FITC-hemoglobin; assay type: biochemical, Liriomyza trifolii; details: leafminer pH 3.5; equistatin purified from sea anemone
Protocol: as §1, §2, §3

[7] = system: Colorado potato beetle larval gut extracts (potato protease inhibitor-insensitive cysteine proteases); experiment: General proteolytic activity of Colorado potato beetle larval gut extracts, azocasein; assay type: biochemical, Leptinotarsa decemlineata
Text: Guts of final instar Colorado potato beetle larvae reared on methyl jasmonate induced plants were isolated and extracted essentially as described (Bolter and Jongsma, J. Insect Physiol. 41: 1071-1078). In these gut extracts the proteases that are sensitive to the protease inhibitors of potato are already complexed. The residual protease activity is composed of potato protease-inhibitor-insensitive proteases which were induced in response to the methyl jasmonate induced potato inhibitors. These proteases are the proteases that render the beetle larvae insensitive to protease inhibitor defense of the potato plant. Wle tested a broad range of different cysteisie protease inhibitors for activity specifically against these induced potato protease inhibitor-insensitive cysteine protesses. Nearly all of these inhibitors were purified at the Jozef Stefan Institute in Slovenia. Testing their potential against Colorado potato beetle was done using both general protein substrates (azocasein, table 2) as well as specific synthetic substrates (L-Arg-pNA, table 3; pGlu-Phe-Leu-pNA, table 4; Z-Phe-Arg-pNA, table 5; Z-Arg-Arg-pNA, table 6). In specific cases inhibitors were tested at two concentrations, eauimolar and in excess to the protease, in order to obtain an indication of the tightness of the complex. […] Importantly, this class of inhibitors was capable of inhibiting nearly all general cysteine protease activity. The equistatin peptide molecule and a functional derivative thereof were not very active against the aminopeptidase-like cysteine protease activity. […] The best combination of inhibitors for full toxicity against the Colorado potato beetle would therefore be a combination of equistatin or p41 invariant chain fragment and stefin-like inhibitors.

Work on lens cystatin yielded a residual general proteolytic activity (azocasein) in excess of inhibitor (% residual activity) [1] of 60.

In the case of “Recombinant human stefin A (from UniProt P01040 1-98)”, the residual amino-peptidase activity (L-Arg-pNA), equimolar inhibitor (% of residual activity) [1] is reported as 60, the residual amino-peptidase activity (L-Arg-pNA), excess inhibitor (% of residual activity) [1] is reported as 10 and the residual broad spectrum endoprotease activity (Z-Phe-Arg-pNA), equimolar inhibitor (% of residual activity) [1] is reported as 95. For the same molecule, the residual broad spectrum endoprotease activity (Z-Phe-Arg-pNA), excess inhibitor (% of residual activity) [1] was 80, the residual general proteolytic activity (azocasein) in excess of inhibitor (% residual activity) [1] was 90 and the residual narrow spectrum endoprotease activity (Z-Arg-Arg-pNA), excess inhibitor (% of residual activity) [1] was 90. The residual tri-peptidil-peptidase and endoprotease activity (pGlu-Phe-Leu-pNA), equimolar inhibitor (% of residual activity) [1] was 95 and the residual tri-peptidil-peptidase and endoprotease activity (pGlu-Phe-Leu-pNA), excess inhibitor (% of residual activity) [1] was 90.

In the case of “Aspartic protease inhibitor (API) purified from potato”, the residual protease activity (FITC-hemoglobin), pH 3.5 (% residual activity) [2] is reported as 37.

`CC(C)CC(=O)N[C@H](C(=O)N[C@H](C(=O)N[C@@H](CC(C)C)[C@@H](O)CC(=O)N[C@@H](C)C(=O)N[C@@H](CC(C)C)[C@@H](O)CC(=O)O)C(C)C)C(C)C` [Pepstatin, reference compound] (Isovaleryl-VV[Sta]A[Sta]-OH) was tested, and the residual protease activity ([3]; western corn rootworm pH 3) was 45%, the residual protease activity ([3]; western corn rootworm pH 6.5) was 58% and the “inhibition of total protease activity” value ([4]; Colorado potato beetle, pH3) was 82%. For the same molecule, the residual protease activity ([4]; colorado potato beetle pH 3, recombinant equistatin) was 18%, the residual protease activity ([5]; thrips pH 3.5, equistatin purified from sea anemone) was 84% and the “inhibition of protease activity” value ([5]; thrips, pH 3.5) was 16%. The residual protease activity [6] was 46%.

Molecule “porcine stefin D2 (from UniProt P80736 1-35)” has a residual general proteolytic activity (azocasein) in excess of inhibitor (% residual activity) [1] of 105.

“human LMW kininogen (from UniProt P01042 19-427)” showed a residual general proteolytic activity (azocasein) in excess of inhibitor (% residual activity) [1] of 65.

With Chelidonium majus cystatin the residual general proteolytic activity (azocasein) in excess of inhibitor (% residual activity) [1] was 100.

PCPI 6.6 was tested, and the residual general proteolytic activity (azocasein) in excess of inhibitor (% residual activity) [1] was 120.

Molecule “Recombinant potato cystatin (p.cystatin), a monomer of multicystatin expressed as a fusion protein with glutathione-S-transferase” has a residual protease activity (FITC-hemoglobin), pH 3.5 (% residual activity) [2] of 73.

soybean cystatin showed a residual general proteolytic activity (azocasein) in excess of inhibitor (% residual activity) [1] of 65.

With bromelain inhibitor the residual general proteolytic activity (azocasein) in excess of inhibitor (% residual activity) [1] was 110.

“human kininogen 3rd domain (from UniProt P01042 273-376)” was tested, and the residual general proteolytic activity (azocasein) in excess of inhibitor (% residual activity) [1] was 20.

cowpea cystatin was tested, and the residual general proteolytic activity (azocasein) in excess of inhibitor (% residual activity) [1] was 75.

Molecule bovine kininogen has a residual general proteolytic activity (azocasein) in excess of inhibitor (% residual activity) [1] of 110.

B1: chicken cystatin (protein, UniProt P01038 24-139, looked up)
chain: SEDRSRLLGAPVPVDENDEGLQRALQFAMAEYNRASNDKYSSRVVRVISAKRQLVSGIKYILQVEIGRTTCPKSSGDLQSCEFHDEPEMAKYTTCTFVVYSIPWLNQIKLLESKCQ
B1 was tested, and the residual general proteolytic activity (azocasein) in excess of inhibitor (% residual activity) [1] was 105 and the “Residual activity in excess of inhibitor” value [7] was 105%.

B2: potato multicystatin (protein, UniProt P37842 1-756, looked up)
chain: MAIVGGLVDVPFENKVEFDDLARFAVQDYNQKNDSSLEFKKVLNVKQQIVAGIMYYITFEATEGGNKKEYEAKILLRKWEDLKKVVGFKLVGDDSTMPGGIVNVPNPNNTKFQELARFAIQDYNKKQNAHLEFVENLNVKEQVVAGIMYYITLAATDDAGKKKIYKAKIWVKEWEDFKKVVEFKLVGDDIAKLGGITDVPFPNNPEFQDLARFAIQVYNKKENVHLEFVENLNVKQQVVAGMMYYITLAAIDAGKKKIYETKIWVKEWEDFKKVVEFKLVGDDSAKTGGIINVPNPNSPEFQDLARFAVQDYNNTQNAHLEFVENLNVKEQLVSGMMYYITLAATDAGNKKEYEAKIWVKEWEDFKKVIDFKLVGNDSAKKLGGFTEVPFPNSPEFQDLTRFAVHQYNKDQNAHLEFVENLNVKKQVVAGMLYYITFAATDGGKKKIYETKIWVKVWENFKKVVEFKLVGDDSAKLGGIINVPFPNNPEFQDLARFAVQDYNKKENAHLEFVENLNVKEQLVAGMLYYITLVAIDAGKKKIYEAKIWVKEWENFKKVIEFKLIGDDSAIIGGFTDVPFPNNPEFQDLARFAVQDYNKKENAHLEYVENLNVKEQLVAGMIYYITLVATDAGKKKIYEAKIWVKEWEDFKKVVEFKLVGDDSAKPGGIIIVPFPNSPEFQDLARFAVQDFNKKENGHLEFVENLNVKEQVVAGMMYYITLAATDARKKEIYETKILVKEWENFKEVQEFKLVGDATK
In the case of B2, the residual general proteolytic activity (azocasein) in excess of inhibitor (% residual activity) [1] is reported as 90 and the “Residual activity in excess of inhibitor” value [7] is reported as 90%.

B3: Recombinant Kunitz PCPI8.3 (produced in Pichia pastoris) (protein, potato, UniProt P20347 43-222, looked up)
chain: LVLPEVYDQDGNPLRIGERYIINNPLLGAGAVYLYNIGNLQCPNAVLQHMSIPQFLGEGTPVVFVRKSESDYGDVVRVMTVVYIKFFVKTTKLCVDQTVWKVNDEQLVVTGGKVGNENDIFKIMKTDLVTPGGSKYVYKLLHCPSHLGCKNIGGNFKNGYPRLVTVDDDKDFIPFVFIKA
Work on B3 yielded a residual protease activity (FITC-hemoglobin), pH 3.5 (% residual activity) [2] of 43.

B4: bovine kininogen: Type III cystatin (protein, UniProt P01044 19-621, looked up)
Kininogen-1: QESSQEIDCNDQDVFKAVDAALTKYNSENKSGNQFVLYRITEVARMDNPDTFYSLKYQIKEGDCPFQSNKTWQDCDYKDSAQAATGECTATVAKRGNMKFSVAIQTCLITPAEGPVVTAQYECLGCVHPISTKSPDLEPVLRYAIQYFNNNTSHSHLFDLKEVKRAQRQVVSGWNYEVNYSIAQTNCSKEEFSFLTPDCKSLSSGDTGECTDKAHVDVKLRISSFSQKCDLYPVKDFVQPPTRLCAGCPKPIPVDSPDLEEPLSHSIAKLNAEHDGAFYFKIDTVKKATVQVVAGLKYSIVFIARETTCSKGSNEELTKSCEINIHGQILHCDANVYVVPWEEKVYPTVNCQPLGQTSLMKRPPGFSPFRSVQVMKTEGSTTVSLPHSAMSPVQDEERDSGKEQGPTHGHGWDHGKQIKLHGLGLGHKHKHDQGHGHHGSHGLGHGHQKQHGLGHGHKHGHGHGKHKNKGKNNGKHYDWRTPYLASSYEDSTTSSAQTQEKTEETTLSSLAQPGVAITFPDFQDSDLIATVMPNTLPPHTESDDDWIPDIQTEPNSLAFKLISDFPETTSPKCPSRPWKPVNGVNPTVEMKESHDFDLVDALL
B4 was tested, and the “Residual activity in excess of inhibitor” value [7] was 110%.

B5: porcine stefin B (protein, UniProt Q29290 1-98, looked up)
chain: MMCGAPSATQPATAEIQAIADKVKSQLEEKENKTFPVFKAVEFKSQVVAGRNLFIKVQVDDDDFVHLRVFESLPHENKPLTLSSYQTNKSRHDELTYF
With B5 the residual general proteolytic activity (azocasein) in excess of inhibitor (% residual activity) [1] was 100 and the “Residual activity in excess of inhibitor” value [7] was 100%.

B6: human cystatin c (protein, UniProt P01034 27-146, looked up)
chain: SSPGKPPRLVGGPMDASVEEEGVRRALDFAVGEYNKASNDMYHSRALQVVRARKQIVAGVNYFLDVELGRTTCTKTQPNLDNCPFHDQPHLKRKAFCSFQIYAVPWQGTMTLSKSTCQDA
In the case of B6, the residual general proteolytic activity (azocasein) in excess of inhibitor (% residual activity) [1] is reported as 105 and the “Residual activity in excess of inhibitor” value [7] is reported as 105%.

B7: porcine stefin D1 (protein, UniProt P35479 1-103, looked up)
chain: MESEEMLAGGLTEPRPATPEIQEIANKVKPQLEEKTNKTYEKFEAIIYRSQVVAGTNYYIKVHVGGNNYVHIRVFQSLPHQEDPLKLIGYQVDKTKDDELTGF
B7 showed a residual general proteolytic activity (azocasein) in excess of inhibitor (% residual activity) [1] of 105.

B8: rat stefin A (protein, UniProt P01039 1-103, looked up)
chain: MDPGTTGIVGGVSEAKPATPEIQEVADKVKRQLEEKTNEKYEKFKVVEYKSQVVAGQILFMKVDVGNGRFLHMKVLRGLSGDDDLKLLDYQTNKTKNDELTDF
For B8, the residual general proteolytic activity (azocasein) in excess of inhibitor (% residual activity) [1] was 90.
